Source: the supplement of paper PMC12783771
± gives the standard deviation of the averaged measurements.

Experiments:
[1] = sfGFP reporter fluorescence (15 h) (µM FITC); higher = stronger transcriptional activation; conditions: library round: Round 0
Protocol: (§1)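 Cell-free (BL21 Star DE3 extract, PANOx-SP) biosensing: 1 µL Echo-assembled reactions with linear PbrR variant templates (5 nM) and pPbrR-sfGFP reporter, with 1 µM Pb (lead chloride), 30 µM Zn (zinc acetate) or no ligand; endpoint sfGFP fluorescence after 15 h at 30 °C, calibrated as µM FITC. Round 0 library (alanine scan, site saturation, combinatorial) of PbrR from Cupriavidus metallidurans; 2 biological replicates.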

[2] = sfGFP reporter fluorescence (15 h) (µM FITC); higher = higher leak; conditions: library round: Round 0; ligand: none
Protocol: as §1

MNIQIGELAKRTACPVVTIRFYEQEGLLPPPGRSRGNFRLYGEEHVERLQFIRHCRSLDMPLSDVRTLLSYRKRPDQDCGEVNMLLDEHIRQVESRIGALLELKHHLVELREACSGARPAQSCGILQGLSDCVCDTRGTTAHPSDA [*146A]
sfGFP reporter fluorescence ([1]; ligand: 1 µM Pb): 0.0918 ± 0.006 | sfGFP reporter fluorescence ([1]; ligand: 30 µM Zn): 0.671 ± 0.0096 | sfGFP reporter fluorescence [2]: 0.06121 ± 0.00052
